Experimental data taken from the nanobody polyreactivity screen of Harvey et al. (2022).

Experiment: yeast display, Sf9 membrane polyspecificity reagent, FACS + sequencing; frameworks hold sequencing errors
Summary of the method: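 Sorting gates, low and high (top ~1%), were placed on anti-HA fluorescence to track expression and on streptavidin fluorescence to track reagent binding. A clone's polyreactivity label is taken from the gate it came out of. The reagent was 10% biotinylated, detergent-solubilized Sf9 membrane, applied for 1 hour at 4 °C to galactose-induced yeast display cells.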

Question: With “QVQLVESGGGLVQAGGSLRLSCAASGSIFRYYAMGWYRQAPGKERELVAAISGDSGRTYYADSVKGRFTISRDNAKNTVYFQMNSLKPEDTAVYYCNARVAYRYRTGYDYWGQGTQVTVSS” as the sequence, how does the “polyreactivity (PSR sort gate)” value read?
Answer: The value was “high polyreactivity”.

Question: With “QVQLVESGGGLVQAGGSLRLICAASGSTFASYAMGWYRQAPGKERELVAAITRRGGSTYYADSVKGRFTISRDNAKNTVYLQMNSLKPEDTAVYYCAAKWTPATYKFDYWGQGTQVTVSS” as the sequence, how does the “polyreactivity (PSR sort gate)” value read?
Answer: Its value is “high polyreactivity”.

Question: For “QVQLVESGGGLVQAGGSLSLSCAATGLTFQQYAMGWYRQAPWKERELVAAITVSGGHTYYADSVKGRFTISRDNAKNTVYLQMNTLKPEDTAVYYCAAPPGYTGRYDYYYCGQGTQVTVSS”, which “polyreactivity (PSR sort gate)” value is on record?
Answer: The value was “high polyreactivity”.

Question: With “QVQLVESGGGLVQAGGSLRLSCAASGRIFTPYVMGWYRQAPGKERELVADINLSGDSTSYADSVKGRFTISRDNAKNTVYLQMNSLKPEDTAVYYCNADSYIYVGNDQYDYWGQGTQVTVSS” as the sequence, how does the “polyreactivity (PSR sort gate)” value read?
Answer: Its value is “low polyreactivity”.

Question: For “QVQLVESGGGLVQAGGSLRLSCAASGSSFTPNALGWYRQAPGKERELVAAISSSSDRTYYADSVKGRFTISRDNAKNTVYLQMNSLKPEDTAVYYCNARTEYASSRYYYWGQGTQVTVSS”, which “polyreactivity (PSR sort gate)” value is on record?
Answer: The value was “high polyreactivity”.

Question: For “QVQLVESGGGLVQAGGSLRISCAASGPTFGYNGMGWYRQAPGKERELVAAINSGGNTNYADSVKGRFTISRDNAKYTVDFQLNSLKPEDTAVYYCAKYGTLYEPVPNEYDYWGQGTQVTVSS”, which “polyreactivity (PSR sort gate)” value is on record?
Answer: The value was “low polyreactivity”.

Question: For “QVQLVDSGGGLVQAGGSLRLSCAASGSTFVYYAMGWYRQAPGKERELVAAITWNGGSTYYADSVKGRFTISRDNAKNTVYLQMNSLKPEDTAVYYCNAEYPVYFEGYPYYWDYWGDSWGQGTQVTVSS”, which “polyreactivity (PSR sort gate)” value is on record?
Answer: Its value is “high polyreactivity”.

Question: For “QVQLVESGGGLVQAGGSVRLSCAASGLIFGGYTMGWYRQAPGKDRELVAAIDSADSTYYADSVKGRFTISRDNAKNTVYLQMNSLKPEDTAVYYCATYWYYSGPAYSLRETGGVNYWGQGTQVTVSS”, which “polyreactivity (PSR sort gate)” value is on record?
Answer: Its value is “low polyreactivity”.

Question: Which “polyreactivity (PSR sort gate)” value does the source give for “QVQLVESGGGLVQAGGSLRLSCAASGSIFSYNAMGWYRQAPGKERELVAAIRASGGDTYYADSVKGRFTISRDNAKNTVYLQMNSLKPEDTAVYYCAARTYAHHYASHGYWGQGTQVTVSS” here?
Answer: Its value is “low polyreactivity”.

Question: Which “polyreactivity (PSR sort gate)” value does the source give for “QVQLVESGGGLVQAGGSLRLSCAASGITFPGYAMGWYRQATGKERELVAVIRKSGTSTYYADSVKGRFTISRDTAKNTVYLQMNSLKPEDTAVYYCAAGGPSTLDDYWGQGTQVTVSS” here?
Answer: The value was “low polyreactivity”.

Question: For “QVQLVESGGGLVQAGGSLRLSCAASGIIFYYNAMGWYRQAPGKERELVATIRWRGGSTYYADSVKGRFTISRDNAKNTVYLQMNSLKPEDTAVYYCNKSYDNSSDSDYWGQGTQVTVSS”, which “polyreactivity (PSR sort gate)” value is on record?
Answer: Its value is “low polyreactivity”.

Question: For “QVQLVESGGGLVQAGGSLRLSCAASGFTFWRYAMGWYRQAPGKDRELVAAISWRGSSTYYADSVKGRFTISRDNAMNTVYLQMNSLKPEDTAVSYCARYQSTYDSTYNYWGQGTQVTVSS”, which “polyreactivity (PSR sort gate)” value is on record?
Answer: The value was “high polyreactivity”.

Question: With “QVQLVESGGGLVQAGGSLRLSCAASGFIFRYYAMGWSRQAPGKERELVAVISSNGARTSYADSVKGRFTISRDNAKNTVYLQMNSLKPEDTAVYYCNARAWSRFPPVGHDYWGQGTQVTVSS” as the sequence, how does the “polyreactivity (PSR sort gate)” value read?
Answer: The value was “high polyreactivity”.

Question: Which “polyreactivity (PSR sort gate)” value does the source give for “QVQLVESGGGLVQAGGSLRLSCAASGSILPRYGMGWYRQAPGKEREFVAAISWRGGRTYYADSVKGRFTISRDNAKNTVYLQMNSLKPEDTAVYYCAARANIYTRLDYWGQGTQVTVSS” here?
Answer: Its value is “high polyreactivity”.

Question: Which “polyreactivity (PSR sort gate)” value does the source give for “QVQLVESGGGLVQAGGSLRLSCAASGRTFDYNAMVWYRQAPGKERELVAAISGSGTRTFYADSVKGRFTISRDNAKNTVYLLMNSLKPVDTAVYYCAASHGWSKSIFYYWGQGTQVTVSS” here?
Answer: The value was “high polyreactivity”.

Question: For “QVQLEETGGGLVQAGGSLRLSCAASGRIFWWYAMGWYRQAPGKERELVAVIDDSGGITYYADSVKGRFTISRDNAKNTVYLQMNSLKPEDTAVYYCARNVNAQKVLAGFDYWGQGTQVTVSS”, which “polyreactivity (PSR sort gate)” value is on record?
Answer: The value was “low polyreactivity”.

Question: With “QVQLVESGGGLVQAGGSLRLSCAASGRIIEYYAMGWYRQAPGKERELVAAISSGGSTYYADSVKGRFTISRDNAKNTVYLQMNSLKPEDTAVYYCNTRYVYTRGGPLKRDYWGQGTQVTVSS” as the sequence, how does the “polyreactivity (PSR sort gate)” value read?
Answer: Its value is “high polyreactivity”.

Question: Which “polyreactivity (PSR sort gate)” value does the source give for “QVQLVESGGGLVQAGGSLRLSCAASGSTFWQYAMGWYRQAPGKERELVAAISYSGGSTYYADSVKGRFTISRDNAKNTVYLQMNSLKPEDTAVYYCAKEYNVGFYLVFNRFDYWGQGTQVTVSS” here?
Answer: Its value is “low polyreactivity”.

Question: With “QVQLVESGGGLVQAGGSLRLSCAASGFIFHRYAMGGYRQAPGKERELVASITRSGGSTYYADSVKGRFTISRDNAKNTVYLQMNSLKPEDTAVYYCAAQLPSYYKYPRHDYWGQGTQVTVSS” as the sequence, how does the “polyreactivity (PSR sort gate)” value read?
Answer: Its value is “high polyreactivity”.

Question: Which “polyreactivity (PSR sort gate)” value does the source give for “QVQLVESGGGLVQAVGSLRLSCAASGGIFTLYVMGWYRQAPGKERELVAAISRTGGSTYYADSVKGRFTISRDNAKNTVYLQMNSLKPEDTAVYYCAALYRGGTRYGGYDYWGQGTQVTVSS” here?
Answer: Its value is “low polyreactivity”.
